Source: FireProtDB (doi:10.1002/pro.5560041207)

B1: Thioredoxin, P08058 (parent)
chain: MSTVPVTDATFDTEVRKSDVPVVVDFWAEWCGPCRQIGPALEELSKEYAGKVKIVKVNVDENPESPAMLGVRGIPALFLFKNGQVVSNKVGAAPKAALATWIASAL

Variants of: B1
Details: Cereibacter sphaeroides, pH 7.4, 23 °C, Urea, Fluorescence, whole UniProt chain shown

Variant | unfolding free energy (Potassium phosphate 20mM) [kcal/mol] | ddG of mutation (higher = less stable) (Potassium phosphate 20 mM) [kcal/mol] | unfolding free energy (Potassium phosphate 20 mM) [kcal/mol]
F26Y | 7.89 | – | –
F26V | 3.35 | 4.8 | 3.4
F26I | 4.3 | – | –
F26L | 4.78 | 3.4 | 4.8
